Source: the DeepSol protein solubility set

Test: soluble on expression in E. coli; label from the status in PepcDB or PDB records

| Sequence | soluble on expression in E. coli |
| --- | --- |
| MYSFPNSFRFGWSQAGFQSEMGTPGSEDPNTDWYKWVHDPENMAAGLVSGDLPENGPGYWGNYKTFHDNAQKMGLKIARLNVEWSRIFPNPLPRPQNFDESKQDVTEVEINENELKRLDEYANKDALNHYREIFKDLKSRGLYFILNMYHWPLPLWLHDPIRVRRGDFTGPSGWLSTRTVYEFARFSAYIAWKFDDLVDEYSTMNEPNVVGGLGYVGVKSGFPPGYLSFELSRRAMYNIIQAHARAYDGIKSVSKKPVGIIYANSSFQPLTDKDMEAVEMAENDNRWWFFDAIIRGEITRGNEKIVRDDLKGRLDWIGVNYYTRTVVKRTEKGYVSLGGYGHGCERNSVSLAGLPTSDFGWEFFPEGLYDVLTKYWNRYHLYMYVTENGIADDADYQRPYYLVSHVYQVHRAINSGADVRGYLHWSLADNYEWASGFSMRFGLLKVDYNTKRLYWRPSALVYREIATNGAITDEIEHLNSVPPVKPLRH | soluble |
| MDGHAPTFTSIQDIQGEGASSPFIDGYPYITTEEHFVTGVVSAVTSGLTKGFYLQAIENDNNDKTSEGLFIHTNAADTELKPGDVVCVKGKVQEYYNNTQLSSDATSYVKTGTSDIPLVTPLVIKEGETLRDALERHEGMQVTLNSASDLFVTRNFSYDYDSKRNNMMLSHQAPLFKPTQLHAADSAEAVALAKQNAENRVFLESDAKAPNGKIPYYPEFGQDLDQDGSSEQHIRLGSRVEGLQGVVNYSYNEYRLIATNDVNNTNFVAAGDGFDVERKAAPAIAESDLRVASFNVLNYFTSVALEHHHHHH | not soluble |
| NQLLTQQANEDGLTKLFNRRYIDQKLDSMVAWHGRHHMPMAMILLDVDFFKPFNDNYGHIEGDRCLQAIANQLKATFCRSGEYVGRYGGEEFVVLLSSTDAQTAEREAERIQEAMYFLDYQHEFSSVANRVTVSQGVFVFQPTGKENQADLYATADRALYTSKSLGRNTYTMVNAS | not soluble |
| MRFLDRFFKKKKKEEALWTKCPNCKSLLYVPDLESNLKVCPNCDYHFTLSALERIKYTLDEENPELLFEEILPADPLNFKDTKSYKDRIKKAQEETGLSEAIVITEGHIKGKRAILAVMDFNFIGGSMGSVVGERFFRACERAVETKTPLISFAASGGARMQEGILSLMQMAKTTFGVGLLKEANIPYISVLTNPTMGGVSASFAFLGDLILAEPKALIGFAGPRVIEQTIKQKLPEGFQTAEFLLEKGQIDMVVHRKELKDKLAYFLEVMYYAKRLEHHHHHH | not soluble |
| MDPFGKYIKAVSARAADKEILKKAQDGGIVSAAYIYGLESGLLDGVIIADKEDGFAAAPKVATTREEILNAAGTKYTVCPNLSVVKSAVREYGCDKLGFVGTPCQVRSIRKAIKYPVGYRHVPDKIALIMGIFCMENFPYNGMKAIVEEHCGIKMDDVVKTDIGKGKFWVYSKWGDVKTIPLKDTHPYEQGSCHVCMDYTAELADISTGSVGSPDGWSTIFVRTAKGEEYLNKMVEAGALETKEIDAVKPGLGLVEKLALTKKEKNGKEVEHRKEIGLPVPYLEHHHHHH | not soluble |
| MSLEKVQLPSVPAFKGHSFLAFPTLRAYHTLRLAMEFRALETEGLLLYNGNARGKDFLALALLDGHVQFRFDTGSGPAVLTSLVPVEPGRWHRLELSRHWRQGTLSVDGEAPVVGESPSGTDGLNLDTKLYVGGLPEEQVATVLDRTSVGIGLKGCIRMLDINNQQLELSDWQRAVVQSSGVGEEGHHHHHH | soluble |
| MMGFEWGFKPSSKITQSTVSSQGTGNVMIPTAGVKQKRRYANEEQEEEELPRNKNVMKYGGVSKRRPQPGSLIRGQPLPLQRGMELMNKNQLQQLLVDLMTKHPEIQQSVHTRVIGLDFSIQKCLDMLKQKSEAVYQSIPYNRSYESNKLDDYAFVRMKPQILEFLNCLVDFILDNIPPRLENLHASLKFLDICTELVIKLPRFELASNNYYYDKCIEQLSHVWCTLIEHVARDRIILLADNSSVWKSHMTRLQVYNEHSNGLLERPLQLFKSLDMGSPSAASSSTLSLQESIIYHHDTMTANENNNNSGSAATDSPFN | soluble |
| MSARLDAQIAFLKQADRLKSVERANVLLDLSRPENSAEHSWHLALWALVLSPFAAPDVDVDRAIRMLLLHDLVEIETGDHPIHEVTDWQAVERAERAAARKLFGLLPPDQAADFHTLWTEFDADETADARYAKMLDRCQPMFQVLCADTPRPDHVEVVRENLSSGRAAYLAEAFPEAHAHARALLERHPPVTGGFGDRLEFLAEADRLKTVLRASRLMDDSRFENSAEHSWHIMLYAWVLGEYAAAPVDIDRVLRMLLLHDLVEIDAGDNPIHGNVDHAAQEALEAAAAERLFGLLPPDQGAGLRAIWQEFETAQSADALFGKAVDRVQTPIANLENGGGSWVTYDVSLQQLVARVGTPVSRGAPGLWDWLFPQLSDCFTRLGLRLLEHHHHHH | soluble |
| TYDSLKESTARDTGHLTLTTPGYFAKEEEMPLSNGLSHADEITKQLIGLSEVRGVQPRVEFSGLISNGSKSSIFIGIGVNEREFDMKGPFLDVRDGQTLSNIHASRYDASEPEVMLGVDLASNLSVNVGDWITLLATTTDGALNAYDFKVRGIYSTGVPELDKRQLYVHINSAQSLLGSDKVSALSVFLFDTCLTNKVEQQVATILNKQKPSFGDQEVEITPWQERAFFYLKVKDLYDR | not soluble |
| MGSSHHHHHHSSGLVPRGSHMGVKSLVPQELIEKIKLISPGTELRKALDDIINANFGALIFLVDDPKKYEDVIQGGFWLDTDFSAEKLYELSKMDGAIVLSEDITKIYYANVHLVPDPTIPTGETGTRHRTAERLAKQTGKVVIAVSRRRNIISLYYKNYKYVVNQVDFLISKVTQAISTLEKYKDNFNKLLSELEVLELENRVTLADVVRTLAKGFELLRIVEEIRPYIVELGEEGRLARMQLRELTEDVDDLLVLLIMDYSSEEVEEETAQNILQDFITRREPSPISISRVLGYDVQQAAQLDDVLVSARGYRLLKTVARIPLSIGYNVVRMFKTLDQISKASVEDLKKVEGIGEKRARAISESISSLKHRKTSE | soluble |
| ANEMTYEQLARELLLVGPAPTNEDLKLRYLDVLIDNGLNPPGPPKRILIVGAGIAGLVAGDLLTRAGHDVTILEANANRVGGRIKTFHAKKGEPSPFADPAQYAEAGAMRLPSFHPLTLALIDKLGLKRRLFFNVDIDPQTGNQDAPVPPVFYKSFKDGKTWTNGAPSPEFKEPDKRNHTWIRTNREQVRRAQYATDPSSINEGFHLTGCETRLTVSDMVNQALEPVRDYYSVKQDDGTRVNKPFKEWLAGWADVVRDFDGYSMGRFLREYAEFSDEAVEAIGTIENMTSRLHLAFFHSFLGRSDIDPRATYWEIEGGSRMLPETLAKDLRDQIVMGQRMVRLEYYDPGRDGHHGELTGPGGPAVAIQTVPEGEPY | soluble |
| SGKLHSKPAAVCKRRESPEGDSFAVSAAWARKGIEEWIGRQRCPGGVSGPRQLRLAGTIGRSTRELVGDVLRDTLSEEEEDDFRLEVALPPEKTDGLGSGDEKKMERVSEPCPGSKKQLKFEELQCDVSMEEDSRQEWTFTLYDFDNNGKVTREDITSLLHTIYEVVDSSVNHSPTSSKMLRVKLTVAPDGSQSKRSVLVNQADLQSARPRAETKPTEDLRSWEKKQRAPLRFQGDSRLEQSGCYHHCVDENIERRNHYLDLAGIENYTSQFGPGSPSVAQKSELPPRTSNPTRSRSHEPEAIHIPHRKPQGVDPASFHFLDTPIAKVSELQQRLRGTQDGSKHFVRSPKAQGKSVGVGHVARGARNKPPLGPAIPAVSPSAHLAASPALLPSLAPLGHKKHKHRAKESQQGCRGLQAPLASGGPVLGREHLRELPALVVYESQAGQPVQRHEHHHHHEHHHHYHHFYQT | not soluble |
| MGSDKIHHHHHHMASLVDQITDLYVRMAELERRNRNRRRKGTIAEVSDDKSKYRVKLSEQAGKPYLTPWIKARTLAAGGVKVDVLYSVGEQVDVVSENGEMTDAQIDFSTYSDDNARENSDTPFHIKIGDTVIEASAGQAKVTSPKVIVESPNVQLGGDGGKRVARIGDLVHVMSGSSSGKWPIVEGSEHVFAVD | not soluble |
| MEDKVDVLIIGGGASGVTSGIQSARMGANTLILEESTWLGGMLTSAGVSAVDGNYRLPAGLWGEFKNRLSDYYGGLDSLKTGWVSNVLFEPSVGNKILHEMVAAENNLKVWKQACLEEVKRTGDEWVAKVKVEGQGVKTVRAKVMIDATELGDVAKMCGLEHHHHHH | not soluble |
| MDTFRVFSLFAGISINNSHLLEFAVKAGREVMELNEHRATLFNKNVPSRGVKRVTAITNREREAVLRIEFPNVDVTDIDFDLFQARESTDKPLDVAAAIAYRLLLGSGLPQKFGCSDEVLLNFILQCRKKYRNVPYHNFYHVVDVCQTIYTFLYRGNVYEKLTELECFVLLITALVHDLDHMGLNNSFYLKTESPLGILSSASGNKSVLEVHHCNLAVEILSDPESDVFGGLEGAERTLAFRSMIDCVLATDMARHSEFLEKYLEIMKTSYNVDDSDHRQMTMDVLMKAGDISNVTKPFDVSRQWAMAVTEEFYRQGDMEKERGVEVLPMFDRSKNMELAKGQIGFIDFVAAPFFQKIVDACLQGMQWTVDRTKSNRAQWERVLEARSTG | not soluble |
| MAACRALKAVLVDLSGTLHIEDAAVPGAQEALKRLRGASVIIRFVTNTTKESKQDLLERLRKLEFDISEDEIFTSLTAARSLLERKQVRPMLLVDDRALPDFKGIQTSDPNAVVMGLAPEHFHYQILNQAFRLLLDGAPLIAIHKARYYKRKDGLALGPGPFVTALEYATDTKATVVGKPEKTFFLEALRGTGCEPEEAVMIGDDCRDDVGGAQDVGMLGILVKTGKYRASDEEKINPPPYLTCESFPHAVDHILQHLLAENLYFQ | soluble |
| MRRVTTLLVMMLTVLSACQASPKASPTKPGNAMSNNHPQNPYYSRTDTTRLDLPNEVWKKVLSPELYAVARLAETERAFTGKYWNYEGLGTYYCAACGNTLFRSDAKFASTCGWPSFFETVRPGSVAYREDTSFGMVRTEVLCGRCGAHLGHVFDDGPPPTGKRFCMNSICLDFEPDQPETAKPQ | soluble |
| MTEYGGGEVYLLDLDSVVDGSALRMISSGGLRGRVLIHSALVDYLYSEAKRGRSAGYAGLAELSRLMDAGVGDVEIVVVEDDARVQPRDEGELKSVLRRYALRVGATLVTSDPVQARAARALGVSVLFTGRSRTGRIRIEEFFDGRTMSVHLKEGVPPLAKVGKPGSWMFVSLSDKPLTRAEIEEIAREIIEASALEEEGFIEIDRSGSTIVQLKDYRIVITRPPLSDGWEVTAVKPVAKLRLEDYSLPEKLYNRLLERAEGILIAGAPGMGKTTFAQALATFYAEQGKVVKTIESPRDMRLPPNVTQYSKNYADLGELHDILLLSRPDYTVYDELRSDEDFQLYVDLRLAGIGMIGVVHATTPIDAVQRFLRRVELGMIPSIIDTVIFIDSGEVSKVYELSITVKLPTGLREAELSRPVVEVRDFITGELEYEIYTFGEQTMVVPVRERRGRGEAAILGAIRKLLPDAEVEVRDETLIVRLPPRSSRVTARRLKRAKKLAEKHGYDIRFMPL | soluble |
| MMPTSTCGYPGMAEQSTVLYTAVGYMVGFVSLFNHTHSQDNFFHRGCYYGCDDDNMRFAFFSKAALEFLLRSNKKPDIIHCHDWQTGLIPIMLYEIYKYHGMEYQRVCYTIHNFKHQGMGGVGTLQATALNEASYYFQYNKLRDNFNPFALNLMKGGIIYSNAVTTVSPHHAVEAQTSE | not soluble |
| SNASVFDLFSIGIGPSSSHTVGPMLAANAFLQLLEQKNLFDKTQRVKVELYGSLALTGKGHGTDKAILNGLENKAPETVDPASMIPRMHEILDSNLLNLAGKKEIPFHEATDFLFLQKELLPKHSNGMRFSAFDGNANLLIEQVYYSIGGGFITTEEDFDK | soluble |
